Assay results as given in patent US20130040894A1, “INHIBITION OR ACTIVATION OF SERINE/THREONINE ULK3 KINASE ACTIVITY” (TALLINN UNIVERSITY OF TECHNOLOGY, priority 2009, published 2013).

Assays:
[1] = biological target: T1, His-tagged GLI1 fragment, amino acids 726-1106
T1 chain: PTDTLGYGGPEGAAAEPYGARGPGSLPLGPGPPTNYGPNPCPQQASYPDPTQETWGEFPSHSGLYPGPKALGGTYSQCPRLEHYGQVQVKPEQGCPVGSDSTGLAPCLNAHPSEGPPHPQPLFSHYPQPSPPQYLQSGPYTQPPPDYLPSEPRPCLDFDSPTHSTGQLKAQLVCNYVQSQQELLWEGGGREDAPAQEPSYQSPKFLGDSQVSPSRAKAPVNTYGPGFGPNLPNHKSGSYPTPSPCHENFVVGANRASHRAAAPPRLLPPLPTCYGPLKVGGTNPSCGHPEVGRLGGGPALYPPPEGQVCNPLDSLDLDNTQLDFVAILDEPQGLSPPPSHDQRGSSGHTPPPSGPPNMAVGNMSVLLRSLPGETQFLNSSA

[2] = biological target: T2, His-tagged GLI1 fragment, amino acids 426-754
T2 chain: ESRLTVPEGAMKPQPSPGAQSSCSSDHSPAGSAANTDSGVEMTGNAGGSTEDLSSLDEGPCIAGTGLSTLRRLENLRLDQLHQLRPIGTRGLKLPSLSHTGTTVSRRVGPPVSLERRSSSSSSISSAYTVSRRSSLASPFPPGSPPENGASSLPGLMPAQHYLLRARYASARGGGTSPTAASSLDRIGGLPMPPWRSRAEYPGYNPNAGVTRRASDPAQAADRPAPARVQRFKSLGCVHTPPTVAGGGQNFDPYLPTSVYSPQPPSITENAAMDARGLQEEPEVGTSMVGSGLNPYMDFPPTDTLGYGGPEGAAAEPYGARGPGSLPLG

[3] = biological target: T3, FLAG-tagged GLI1 (full length)
T3 chain: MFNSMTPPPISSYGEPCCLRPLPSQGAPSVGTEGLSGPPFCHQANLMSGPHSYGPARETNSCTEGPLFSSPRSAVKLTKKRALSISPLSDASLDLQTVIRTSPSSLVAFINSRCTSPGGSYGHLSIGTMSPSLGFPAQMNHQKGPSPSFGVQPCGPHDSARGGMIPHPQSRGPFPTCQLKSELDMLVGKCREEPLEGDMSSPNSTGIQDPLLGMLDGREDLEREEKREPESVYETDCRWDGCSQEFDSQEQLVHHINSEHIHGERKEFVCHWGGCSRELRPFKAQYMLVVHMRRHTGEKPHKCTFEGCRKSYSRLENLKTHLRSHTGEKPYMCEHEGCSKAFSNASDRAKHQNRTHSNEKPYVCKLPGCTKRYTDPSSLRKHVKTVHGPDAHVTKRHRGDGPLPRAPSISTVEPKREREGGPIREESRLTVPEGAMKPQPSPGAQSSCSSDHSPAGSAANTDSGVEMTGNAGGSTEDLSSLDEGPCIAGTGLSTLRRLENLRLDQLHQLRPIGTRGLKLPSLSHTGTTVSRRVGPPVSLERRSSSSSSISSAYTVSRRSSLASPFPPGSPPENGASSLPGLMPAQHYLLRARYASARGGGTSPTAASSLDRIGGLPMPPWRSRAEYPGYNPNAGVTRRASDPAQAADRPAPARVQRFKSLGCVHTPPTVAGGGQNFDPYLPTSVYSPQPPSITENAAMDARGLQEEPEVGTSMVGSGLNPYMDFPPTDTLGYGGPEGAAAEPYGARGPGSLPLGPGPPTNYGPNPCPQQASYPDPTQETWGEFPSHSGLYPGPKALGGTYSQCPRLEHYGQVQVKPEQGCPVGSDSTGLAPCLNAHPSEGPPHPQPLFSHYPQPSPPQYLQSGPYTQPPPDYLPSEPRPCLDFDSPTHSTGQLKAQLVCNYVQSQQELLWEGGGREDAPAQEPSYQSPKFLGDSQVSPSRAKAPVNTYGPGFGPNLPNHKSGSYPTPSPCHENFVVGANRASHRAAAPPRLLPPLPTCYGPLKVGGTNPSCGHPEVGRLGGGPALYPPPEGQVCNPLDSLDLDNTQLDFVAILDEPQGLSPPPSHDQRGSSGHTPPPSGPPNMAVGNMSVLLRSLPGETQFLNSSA

[4] = biological target: T4, His-tagged GLI1 fragment, amino acids 1-433
T4 chain: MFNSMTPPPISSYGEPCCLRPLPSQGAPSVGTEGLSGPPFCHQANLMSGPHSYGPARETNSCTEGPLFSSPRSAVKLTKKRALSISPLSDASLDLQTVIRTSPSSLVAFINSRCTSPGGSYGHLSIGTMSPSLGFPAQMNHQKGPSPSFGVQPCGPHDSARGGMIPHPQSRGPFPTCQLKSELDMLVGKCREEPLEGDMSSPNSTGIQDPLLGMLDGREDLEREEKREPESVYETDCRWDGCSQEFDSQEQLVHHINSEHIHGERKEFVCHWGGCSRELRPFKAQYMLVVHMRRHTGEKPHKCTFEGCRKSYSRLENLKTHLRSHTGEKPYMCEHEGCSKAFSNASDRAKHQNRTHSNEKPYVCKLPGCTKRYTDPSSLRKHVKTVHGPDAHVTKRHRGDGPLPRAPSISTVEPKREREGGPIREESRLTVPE

B1: FLAG-tagged wild-type ULK3 (human serine/threonine kinase ULK3) (protein)
chain: MAGPGWGPPRLDGFILTERLGSGTYATVYKAYAKKDTREVVAIKCVAKKSLNKASVENLLTEIEILKGIRHPHIVQLKDFQWDSDNIYLIMEFCAGGDLSRFIHTRRILPEKVARVFMQQLASALQFLHERNISHLDLKPQNILLSSLEKPHLKLADFGFAQHMSPWDEKHVLRGSPLYMAPEMVCQRQYDARVDLWSMGVILYEALFGQPPFASRSFSELEEKIRSNRVIELPLRPLLSRDCRDLLQRLLERDPSRRISFQDFFAHPWVDLEHMPSGESLGRATALVVQAVKKDQEGDSAAALSLYCKALDFFVPALHYEVDAQRKEAIKAKVGQYVSRAEELKAIVSSSNQALLRQGTSARDLLREMARDKPRLLAALEVASAAMAKEEAAGGEQDALDLYQHSLGELLLLLAAEPPGRRRELLHTEVQNLMARAEYLKEQVKMRESRWEADTLDKEGLSESVRSSCTLQ
in vitro kinase assay, phosphorylation of a His-tagged GLI1 fragment [1]: Two of them-GLI1(1-433) and GLI1(726-1106)-were phosphorylated by ULK3
in vitro kinase assay, phosphorylation of a His-tagged GLI1 fragment [2]: Central part of GLI1 (amino acids 426-754) was not phosphorylated by ULK3
in vitro kinase assay, phosphorylation signal (32P autoradiography) [3]: GLI1 and GLI3 were also phosphorylated by ULK3, but with significantly lower intensity as compared to GLI2
in vitro kinase assay, phosphorylation of a His-tagged GLI1 fragment [4]: Two of them-GLI1(1-433) and GLI1(726-1106)-were phosphorylated by ULK3
